According to paper PMC9282010 (Molecular Biology of the Cell, 2022):

B2: Qa(JxR): Vam3 with the juxtamembrane region of Nyv1 and its own TM (other)
chain: MSFFDIEAQSSKGNSQQEPQFSTNQKTKELSNLIETFAEQSRVLEKECTKIGSKRDSKELRYKIETELIPNCTSVRDKIESNILIHQNGKLSADFKNLKTKYQSLQQSYNQRKSLFPLKTPISPGTSKERKDIHPRTEAVRQDPESSYISIKVNEQSPLLHNEGQHQLQLQEEQEQQQQGLSQEELDFQTIIHQERSQQIGRIHTAVQEVNAIFHQLGSLVKEQGEQVTTIDENISHLHDNMQNANKQLTRADEIMWWQKVKKVTLIIIIVVCMVVLLAVLS
B3: Vti1, the vacuolar Qb-SNARE (wild type, membrane-anchored) (natural protein)
chain: MSSLLISYESDFKTTLEQAKASLAEAPSQPLSQRNTTLKHVEQQQDELFDLLDQMDVEVNNSIGDASERATYKAKLREWKKTIQSDIKRPLQSLVDSGDRDRLFGDLNASNIDDDQRQQLLSNHAILQKSGDRLKDASRIANETEGIGSQIMMDLRSQRETLENARQTLFQADSYVDKSIKTLKTMTRRLVANKFISYAIIAVLILLILLVLFSKFK

Tests used:
Assay in all cases: co-IP
[1] = molecular target: B2
[2] = molecular target: B3
[3] = molecular target: T1, Vam3, the vacuolar Qa-SNARE (wild type) (yeast, UniProt Q12241 1-283)
T1 sequence: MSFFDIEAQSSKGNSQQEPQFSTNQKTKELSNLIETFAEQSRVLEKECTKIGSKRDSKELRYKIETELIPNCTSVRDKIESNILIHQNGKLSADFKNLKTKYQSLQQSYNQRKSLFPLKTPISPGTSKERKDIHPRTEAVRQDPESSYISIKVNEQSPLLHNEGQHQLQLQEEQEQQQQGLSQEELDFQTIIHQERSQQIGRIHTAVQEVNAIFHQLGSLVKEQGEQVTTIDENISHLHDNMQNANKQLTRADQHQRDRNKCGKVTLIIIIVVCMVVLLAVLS

B1: R(JxQa): Nyv1 with the juxtamembrane region of Vam3 and its own TM (other)
chain: MKRFNVSYVEVIKNGETISSCFQPFQKNENYGTITSANEQITPVIFHNLIMDMVLPKVVPIKGNKVTKMSMNLIDGFDCFYSTDDHDPKTVYVCFTLVDMPKILPIRILSGLQEYESNATNELLSSHVGQILDSFHEELVEYRNQTLNSSGNGQSSNGNGQNTISDIGDATEDQIKDVIQIMNDNIDKFLERQERVSLLVDKTSQLNSSSNKFRRKAVNIKQHQRDRNKCGNITLLTFTIILFVSAAFMFFYLW
Question: Does B1 bind [1]?
Answer: Result: binds

Question: Does B2 bind [2]?
Answer: Result: binds

Question: Does B3 bind [3]?
Answer: Result: binds
